Experimental findings from patent US8658382B2, “Proteins with pteridine glycosyltransferase activity and analysis method using the same” (Inje University Industry-Academic Cooperation Foundation, priority 2008, dated 2014) are described below.

Entries after “also recorded” stand apart in the source; their conditions may differ.

Data set [1] deals with BGluT. The data set is described as follows: Pteridines as substrate or competitive inhibitor of the BGluT reaction. In kind it is biochemical, Synechococcus sp. PCC 7942. The following applies: for glucosylated product formed from the pteridine as substrate of BGluT: pteridine concentration increased to 5 μM, data not shown. The method, then:
Unless otherwise specified, the following standard reaction conditions were used for the determination of tetrahydrobiopterin and its oxidized forms. Reactions were carried out in a final volume of 100 μl, which consisted of 50 mM Tris-HCl (pH 7.5), 10 mM MgCl2, 0.05% ascorbic acid, 500 μM UDP-glucose, 1 μg of BGluT, and an aliquot of pteridines or tissue extracts. The reaction mixture was incubated for 20 minutes at 37° C. and then mixed with 30 μl of acidic iodine solution (2% KIM % I2 in 1 N HCl). After 1 hour in the dark at room temperature, the oxidized mixture was centrifuged. The supernatant was mixed with 10 μl of 5% ascorbic acid and then neutralized with 30 μl of 1 N NaOH for injection to HPLC.
(§1) The HPLC system consisted of Gilson 321 pump, Gilson 234 autoinjector, a fluorescence detector (Schimadzu RF-10AXL), and a system software (Gilson Unipoint version 5.11). Chromatography was performed on a guard column (10 μm, 4.3 mm×1 cm) and an Inertsil ODS-3 (5 μm, 150×2.3 mm, GL Science, Japan) equilibrated with 10 mM potassium phosphate buffer (pH 6.0) at room temperature. Pteridines were eluted isocratically at a flow rate of 1.2 ml/min and monitored at 350/450 nm (excitation/emission). Pteridine peaks were identified and quantified using authentic pteridines, which were purchased from Dr. B. Schirck's Lab (Jona, Switzerland). Biopterin-glucoside was isolated from Synechococcus sp. PCC 7942 (Y. K. Choi, Y. K. Hwang, Y. H. Kang, Y. S. Park, Chemical structure of 1-O-(L-erythro-biopterin-2′-yl)-alpha-glucose isolated from a cyanobacterium Synechococcus sp. PCC 7942, Pteridines, 12 (2001) 121-125).
To determine whether the presence of dihydrobiopterin, structurally similar to tetrahydrobiopterin, interferes with glucosylation of tetrahydrobiopterin, 1 μM of dihydrobiopterin was added to the same mixture for enzyme reaction as in FIG. 1B, which was then oxidized under acidic condition.
Biological samples contain tetrahydrobiopterin as well as its oxidized forms (dihydrobiopterin and bipterin). In order to quantitatively analyze only tetrahydrobiopterin selectively using BGluT, the BGluT reaction should be specific to tetrahydrobiopterin, without being interfered by its oxidized forms. Using various pteridines (dihydrobiopterin, biopterin, neopterin, tetrahydroneopterin, and isomers thereof) as a substrate, potential inhibitory effect was evaluated. […] It therefore was suspected that dihydrobiopterin might function as a competitive inhibitor in glucosylation of tetrahydrobiopterin by BGluT.
However, when the concentration of dihydrobiopterin is higher than tetrahydrobiopterin, dihydrobiopterin could show inhibitory effects. In order to examine whether dihydrobiopterin interferes with the BGluT reaction, dihydrobiopterin was coincubated under the standard reaction condition with a fixed amount (0.25 μM) of tetrahydrobiopterin, along with increasing concentrations of dihydrobiopterin up to 4-fold (0.05˜1 μM) (see FIG. 4). In FIG. 4, the X-axis represents concentrations of dihydrobiopterin added to the reaction solution and the Y-axis represents peak areas of the glucosylated product produced from tetrahydrobiopterin. The results thereof show means±standard deviations of the peak areas of biopterin-glucoside, which were obtained from triplicate assays. […] In general, the concentrations of the oxidized forms of tetrahydrobiopterin in a biological sample are not higher than that of tetrahydrobiopterin.
In order to examine whether the added dihydrobiopterin has been glucosylated even in small amount, the peak areas of biopterin originated from the dihydrobiopterin (X-axis) were compared with those determined from the same concentration of dihydrobiopterin without enzyme reaction (Y-axis) (FIG. 4 (insert)). The slope obtained from regression line was almost 1.

The nature of data set [2]: Pteridine glycosyltransferase activity with human urine. The following applies: 1 μg protein, 10 μl human urine in 100 μl, FIG. 12. In kind it is biochemical. How it is done:
Also, 1 μg of each protein was added to 100 μl of reaction solution containing 10 μl of human urine instead of tetrahydrobiopterin. The reaction mixture was incubated at for 20 minutes. For CY-49, 500 μM UDP-xylose was added as a substrate; and for other enzymes, UDP-glucose was added. Other reaction conditions were the same as in the above.

Data set [3] can be described thus: Analysis of protein activity of the recombinant proteins with UDP-glycosides. The following applies: for pteridine glycosyltransferase activity (sugar bound to tetrahydrobiopterin): 1 μM tetrahydrobiopterin, 500 μM UDP-glycoside, HPLC, FIG. 10. In kind it is biochemical. The method, then: The protein activity was assayed in 100 μl of reaction mixture having the following composition: 50 mM Tris-HCl (pH 7.5), 10 mM MgCl2, 0.2% ascorbic acid, 1 μM tetrahydrobiopterin, 500 μM UDP-glycoside (one of UDP-glucose, UDP-galactose, UDP-xylose, UDP-glucuronic acid, UDP-galacturonic acid, UDP-N-acetylglucosamine, and UDP-N-acetylgalactosamine) and an appropriate amount of the purified recombinant protein. The reaction was performed at 37 for 10-60 minutes depending on an amount of protein. 30 μl of acidic iodine solution (2%/1% KI/I2 in 1 M HCl) was added to the reaction mixture and allowed in darkness for 1 hour for oxidation thereof. The mixture was centrifuged to recover the supernatant, which was then mixed with 10 μl of 5% ascorbic acid. 30 μl of 1N NaOH was added to the resulting mixture for neutralization and then HPLC analysis was carried out.
as §1, with “HPLC” for “The HPLC”, “quantified by” for “quantified”

Data set [4] can be described thus: Characterization of enzyme activity by amount of protein, compared with BGluT. Format: biochemical. The following applies: production of tetrahydrobiopterin-glycoside by amount of protein (0.05-1.0 μg), FIG. 11. The method, then:
The enzymatic activities for the isolated proteins were compared with that of BGluT. First, production profiles of tetrahydrobiopterin(BH4)-glucoside produced according to amounts of the proteins was compared with that of BGluT. The enzyme activities were represented as a percentage to all converted amounts. The reaction condition was as follows. That is, reactions were performed in a final volume of 100 μl, which consisted of 50 mM Tris-HCl (pH 7.5), 10 mM MgCl2, 0.05% ascorbic acid, 1 μM tetrahydrobiopterin, 500 μM UDP-glucose or UDP-xylose, and a protein (0.05-1.0 μg). The reaction mixture was incubated at 37 for 20 minutes. 30 μl of acidic iodine solution (2%/1% KI/I2 in 1 M HCl) was added thereto in darkness for 1 hour at room temperature, so as to oxidize the reaction mixture. After centrifugation, the resulting supernatant was mixed with 10 μl of 5% ascorbic acid and neutralized with 30 μl of 1N NaOH for injection to HPLC.

Regarding `C[C@H](O)[C@H](O)C1=Nc2c(nc(N)[nH]c2=O)NC1` [dihydrobiopterin], the “slope of regression line, biopterin-glucoside peak area against dihydrobiopterin concentration” value in data set [1] (0.25 μM tetrahydrobiopterin, 0.05~1 μM dihydrobiopterin, standard reaction condition, FIG. 4) was “zero”. In addition, the “effect of added dihydrobiopterin on glucosylation of tetrahydrobiopterin” value in data set [1] (1 μM dihydrobiopterin added, FIG. 1C) was “no significant difference in the amounts of glucosylated products of tetrahydrobiopterin”. In data set [1] (FIG. 4 (insert)), the “slope of regression line, biopterin from dihydrobiopterin with BGluT against without enzyme reaction” value is approximately 1. Besides, the “glucosylated product formed from the pteridine as substrate of BGluT” value (shortened to “glucosylated product formed”) in data set [1] is listed as “a small amount of glucosylated product”.
For the molecule `Nc1nc2ncc([C@H](O)[C@H](O)CO)nc2c(=O)[nH]1` [neopterin], in data set [1], the “glucosylated product formed” value is “only dihydrobiopterin among the pteridines showed”.
As to `Nc1nc2c(c(=O)[nH]1)NC(C(O)C(O)CO)CN2` (centres unmarked) [tetrahydroneopterin], the “glucosylated product formed” value in data set [1] is “only dihydrobiopterin among the pteridines showed”.
On the same count and under the same terms, to biopterin belongs “only dihydrobiopterin among the pteridines showed”.

B1: UICA: recombinant pteridine glycosyltransferase from unidentified wild cyanobacteria A, amino acid SEQ ID NO 4 (protein)
chain: LSRKLLFLSTPVGFLGSGGGGGVELTIYNLARTLNKQGYAVRVVAPEASQLQDIPLITIAGNAQISAQSQDREAPILIPENAVLANMWHYAQQVQNEYDLIVNFAYDWLPFYLTPFFATPVAHLVSMASVSLAMDNIIQKTYRSFPHSLAFHTVTQAETFSLSPPYRRLANGLDVSLYQFRADPSPCLAWVGRIAPEKALEGAIAACQQLGVPLRVFGHISNPLYWQNLQDTYSFDLVDYRGFLPTGSLQKELGDCFGLLMTPGWVEAFGNVAIEALACGVPVVAYRRGGPVEIIEEGKTGFLVEPDSIEGLVTGIKNLDRIDRYSCRAVVEQKYSLEALANRAINWFDEIFARKK
modifications: Unidentified cyanobacteria sp.
In the case of B1, the “HPLC chromatogram of the reaction mixture with human urine” value (shortened to “HPLC chromatogram”) in data set [2] was “very similar to that of BGluT”. Also, in data set [3], the Substrate for glucosylation result is on record as “Glucose” and the “pteridine glycosyltransferase activity (sugar bound to tetrahydrobiopterin)” value is on record as “an activity for binding glucose to tetrahydrobiopterin”.

B2: CY-7: recombinant pteridine glycosyltransferase from Spirulina platensis CY-7, amino acid SEQ ID NO 2 (protein)
chain: MTPTSWKLLFISTPVGPLGSGLGGGVELTLLNMAKALKSRGHDITVVAPSGSVLESLSIIEIPGELQPIAQNQDRDSLITIPENSVLGNMWEYGRQVQTNYHAIVNFAFDWLPFYLTPFFDTPIAHCVSMASLISALDQIVGQVMKQFPGTVGFHSHTQAATFGSDLDYACLGSGLEMERYQFCEQPHQQLAWMGRISPEKGLEDAIAAADKTGIPLEIFGKIQDDQYWQNILNTYPNAPLNYRGFLNTDELQQGLRQCRGLLMTHRWVEAFGNVAIEALACGVPVISYRRGGPAEIVRDGETGWLVEPDSVTGLVDAIAKFEQIDRRQCRAVAEKEYSLAALGDRLEKWLSDVTRLKN
modifications: Spirulina platensis CY-7
B2: the “activity compared with BGluT” value in data set [4] is on record as “higher activities than BGluT; also recorded: more excellent activity than BGluT”. The “HPLC chromatogram” value in data set [2] is listed as “very similar to that of BGluT”. Moreover, in data set [3], the Substrate for glucosylation entry was “Glucose” and the “pteridine glycosyltransferase activity (sugar bound to tetrahydrobiopterin)” value is “an activity for binding glucose to tetrahydrobiopterin”.

B3: UICB: recombinant pteridine glycosyltransferase from unidentified wild cyanobacteria B, amino acid SEQ ID NO 5 (protein)
chain: LSRKLLFLSTPVGFLGSGDGGGVELTIYNLARTLNKQGYAVRVAAPEASQLQDIPLITMAGNAQISAQSQGREAPILMPENAVLANMWHYAQQVQKQYDLIVNFAYDWLPFYLTPFFATPVAHLVSMASVSLAMDHINEKTYSNFPHLLAFHTLAQAETFSLSPPYRCLANGLDVSLYQFRDDPSPCLAWVGRIAPEKALEDAIAACQQLGVPLRVFGHISDPLYWQNSQDTYSFDLVDYRGFLPTGSLQKELGDCFGLLMTPRWVEAFGNVAIEALACGVPVVAYRRGGPVEIIEEGKTGFLVEPDSIEGLVTGIKNLDRIDRYSCRAVVEQKYSLEASANRAINWFEEIFARKK
modifications: Unidentified cyanobacteria sp.
As for B3, the “HPLC chromatogram” value in data set [2] is listed as “very similar to that of BGluT”. Besides, in data set [3], the Substrate for glucosylation result is “Glucose” and the “pteridine glycosyltransferase activity (sugar bound to tetrahydrobiopterin)” value is on record as “an activity for binding glucose to tetrahydrobiopterin”.
